Legend:
Experiment in all cases: Deamination kinetics of compounds as substrates of adenosine deaminase
Format in all cases: biochemical, calf
Settings in all cases: other: adenosine deaminase substrate; buffer solutions
[1] = substrate: Nc1ncnc2c1ncn2COCCP(=O)(O)O[C@H]1[C@H](O)[C@H](n2cnc3c(N)ncnc32)O[C@@H]1CO
Excerpt: (§1) By following an established procedure [Ogilvie, K. K.; Nguyen-Ba, N.; Gillen, M. F.; Radatus, B. K.; Cheriyan, U. O.; Hanna, H. R.; Smith, K. O.; Galloway, K. S. Synthesis of A Purine Acyclonucleoside Series Having Pronounced Antiviral Activity. The Glyceropurines. Can. J. Chem. 1984, 62, 241-252.], we determined the rates of deamination of VI, 13, 37, 40, and 42 in the presence of calf mucosal adenosine deaminase (EC 3.5.4.4) in buffer solutions.

[2] = substrate: Nc1ncnc2c1ncn2COCCO
Excerpt: as §1

[3] = substrate: Nc1ncnc2c1ncn2[C@@H]1O[C@H](CO)[C@@H](O)[C@@H]1O
Excerpt: as §1

[4] = substrate: Nc1ncnc2c1ncn2COCCP(=O)(O)O
Excerpt: as §1

B1: calf mucosal adenosine deaminase (EC 3.5.4.4) (Bos taurus) (protein)
chain: MAQTPAFNKPKVELHVHLDGAIKPETILYYGRKRGIALPADTPEELQNIIGMDKPLSLPEFLAKFDYYMPAIAGCREAVKRIAYEFVEMKAKDGVVYVEVRYSPHLLANSKVEPIPWNQAEGDLTPDEVVSLVNQGLQEGERDFGVKVRSILCCMRHQPSWSSEVVELCKKYREQTVVAIDLAGDETIEGSSLFPGHVKAYAEAVKSGVHRTVHAGEVGSANVVKEAVDTLKTERLGHGYHTLEDATLYNRLRQENMHFEVCPWSSYLTGAWKPDTEHPVVRFKNDQVNYSLNTDDPLIFKSTLDTDYQMTKNEMGFTEEEFKRLNINAAKSSFLPEDEKKELLDLLYKAYGMPSPASAEQCL
notes: calf mucosal adenosine deaminase; from tissue; host or cells: calf mucosa
[1]
  Km: 166.2 µM
[2]
  Km: 138.0 µM
[3]
  Km: 45.3 µM
[4]
  Km: 247.5 µM
